Results: patent US20240109960A1 (ARGENX, published 2024)
Each block holds one binder with its values, some of them ahead of it.

Columns and labels:
human IL-9 [1] = target: T1, human IL-9 (human, UniProt P15248 19-144); experiment: cell-based or functional assay
human IL-9 [2] = target: T1, human IL-9; experiment: cell-based or functional assay; remark: listed apart in the source
human IL-9 [3] = target: T1, human IL-9; experiment: BLI (Octet Red 96), mAb captured on anti-hIgG Fc sensor, hIL-9 in solution, 1:1 model
Experimental: (§1) The BLI experiments on the antagonistic antibodies were performed using an Octet Red 96 machine (Sartorius) in kinetics buffer (PBS, 0.1% (w/v) BSA, 0.02% (v/v) Tween20) at 298 K. Anti-hIgG Fc capture (AHC) or anti-mIgG Fc capture sensors (Sartorius) were functionalized with the IL-9 mAbs. […] Non-functionalized tips were used as negative controls in a double referenced setup. After subtracting the control sensorgrams, the resulting data was fitted with a 1:1 binding model. Data analysis was performed using the Data Analysis software 9.0.0.14 (Sartorius) (Table 6).

mouse IL-9 [4] = target: T2, mouse IL-9 (mouse, UniProt P15247 19-144); experiment: SPR (Biacore 3000), IL-9 immobilised on CM-5 chip, Fab periplasmic extract injected
T2 construct: Recombinant mouse IL-9 (R&D Systems) in SPR and BLI; baculovirus supernatant in the bioassay; also called mIL-9; mIL9
T2 sequence: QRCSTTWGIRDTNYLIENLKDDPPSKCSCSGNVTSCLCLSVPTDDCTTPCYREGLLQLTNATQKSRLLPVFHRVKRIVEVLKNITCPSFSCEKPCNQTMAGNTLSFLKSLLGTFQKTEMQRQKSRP
Experimental: (§2) The binding of Fabs (periplasmic extract) to their respective mouse or human targets was determined by surface plasmon resonance (SPR) using a Biacore 3000 apparatus (GE Healthcare). IL-9 was immobilized on a carboxymethyl dextran sensor chip (CM-5) using amine coupling in sodium acetate buffer (GE Healthcare). The Fab-containing periplasmic extracts were loaded with a flow rate of […]. The Fab binding and off-rates were measured over a 90 second period (Table 5). […] Furthermore, the ability of the antibodies to compete for human or mouse IL-9 binding to human or rat IL-9R was tested also in a Biacore 3000. For this assay, human or rat IL-9R was coated at high density on a carboxymethyl dextran sensor chip (CM-5). Then, a premade mixture of periplasmic extract (Fab) and IL-9 was injected.

human IL-9 [5] = target: T1, human IL-9; experiment: as above
Experimental: as §2

mouse IL-9 [6] = target: T2, mouse IL-9; experiment: cell-based or functional assay
mouse IL-9 [7] = target: T2, mouse IL-9; experiment: BLI (Octet Red 96), mAb captured on anti-mIgG Fc sensor, mIL-9 in solution, 1:1 model
Experimental: as §1

human IL-9 [8] = target: T1, human IL-9; experiment: SPR screening of Fab periplasmic extracts
Experimental: as §2

T1 sequence (P15248 19-144 limits assumed): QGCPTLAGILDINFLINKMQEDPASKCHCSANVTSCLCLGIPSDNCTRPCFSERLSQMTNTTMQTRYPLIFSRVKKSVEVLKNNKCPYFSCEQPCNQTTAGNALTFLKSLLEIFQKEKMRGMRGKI

B1: anti-hIL-9 antibody 6E2 (full IgG) (antibody, V domains shown)
VH: QVQLVESGGGLVQPGGSLRLSCAASGFTFSSSAMGWVRQAPGKGLEWVSTIVNSITTTYYADSVKGRFTISTDNAKNTLYLQIDSLKSEDTAVYYCGSLAGPYYDYWGQGTQVTVSS
VL: LSSALTQPSTVSVSLGQTARITCQGGSLGSYDAHWYQQKPGQAPVLVIHDNNSRPSGIPERFTGSRSGETATLTISGAQTEDEADYYCQSYDSTSDALVFGGGTQLTVL
notes: also called mAb 6E2; 9MP6E2
Bioassay IC50 [pM]: inhibition of human IL-9-induced Baf3hIL9RA6 cell proliferation (human IL-9 [1]): 30.9 pM
IC50, inhibition of human IL-9-induced Baf3hIL9RA6 cell proliferation (hexosaminidase, OD405) (human IL-9 [2]): 0.0609 nM
Kd (human IL-9 [3]): 0.24 nM

B2: Fab 6E2 (Fab, V domains shown)
VH: QVQLVESGGGLVQPGGSLRLSCAASGFTFSSSAMGWVRQAPGKGLEWVSTIVNSITTTYYADSVKGRFTISTDNAKNTLYLQIDSLKSEDTAVYYCGSLAGPYYDYWGQGTQVTVSS
VL: LSSALTQPSTVSVSLGQTARITCQGGSLGSYDAHWYQQKPGQAPVLVIHDNNSRPSGIPERFTGSRSGETATLTISGAQTEDEADYYCQSYDSTSDALVFGGGTQLTVL
notes: it is treated as the same molecule; also called 9MP6E2
binding result (mouse IL-9 [4]): no binding

B3: anti-hIL-9 antibody 7D6 (full IgG) (antibody, V domains shown)
VH: QLQLVESGPGLVKPSQTLSLTCTVSGGSITTGYYAWSWIRQPPGKGLEWMGFIARDGSTSYSPSLKSRTSISRDTSKNQFSLQLSSVTPEDTAVYYCARAGEGRSWYPGYYYGMDYWGKGTLVTVSS
VL: AQAVVTQEPSLSVSPGGTVTLTCGLSSGSVTSSNYPGWYQQTPGQAPRVLIYNTNSRHSGVPSRYSGFISGNKAALTITGAEPEDEADYYCHLHKGSTGVFGGGTHLTVL
notes: also called 9MP7D6
Bioassay IC50 [pM]: inhibition of human IL-9-induced Baf3hIL9RA6 cell proliferation (human IL-9 [1]): 2110 pM
IC50, inhibition of human IL-9-induced Baf3hIL9RA6 cell proliferation (hexosaminidase, OD405) (human IL-9 [2]): 6.3 nM
Kd (human IL-9 [3]): 1.81 nM

B4: Fab 7D6 (Fab, V domains shown)
VH: QLQLVESGPGLVKPSQTLSLTCTVSGGSITTGYYAWSWIRQPPGKGLEWMGFIARDGSTSYSPSLKSRTSISRDTSKNQFSLQLSSVTPEDTAVYYCARAGEGRSWYPGYYYGMDYWGKGTLVTVSS
VL: AQAVVTQEPSLSVSPGGTVTLTCGLSSGSVTSSNYPGWYQQTPGQAPRVLIYNTNSRHSGVPSRYSGFISGNKAALTITGAEPEDEADYYCHLHKGSTGVFGGGTHLTVL
notes: it is treated as the same molecule; also called 9MP7D6
binding result (mouse IL-9 [4]): no binding

B6: anti-mIL-9 antibody 35D8, new batch (mIgG1-N297A) (antibody, V domains shown)
VH: QVQLVESGPGLVQPSQTLSLTCTVSGGSITTSYYDWSWIRQPPGKGLEWMGAIAYSGNAYYSPSLKSRTSISRDTSKNQFTLQLSSVTPEDTAVYYCAREDHYSDTHGWNDYWGQGTQVTVSS
VL: SSALTQPSAVSVSLGQTARITCQGGSIGNFGATWYQQKPGQAPVLLSLGEHSRPSGIPERFSGSKSGGTATLTISGAQAEDEADYYCQSFDYIGNDHVFGGGTHLTVL
Bioassay IC50 [pM]: neutralisation of mouse IL-9 on TS1 cells (hexosaminidase activity) (mouse IL-9 [6]): 20.1 pM

B7: Fab 35D8 (Fab, V domains shown)
VH: QVQLVESGPGLVQPSQTLSLTCTVSGGSITTSYYDWSWIRQPPGKGLEWMGAIAYSGNAYYSPSLKSRTSISRDTSKNQFTLQLSSVTPEDTAVYYCAREDHYSDTHGWNDYWGQGTQVTVSS
VL: SSALTQPSAVSVSLGQTARITCQGGSIGNFGATWYQQKPGQAPVLLSLGEHSRPSGIPERFSGSKSGGTATLTISGAQAEDEADYYCQSFDYIGNDHVFGGGTHLTVL
notes: it is treated as the same molecule
binding result (human IL-9 [5]): no binding
koff (mouse IL-9 [4]): 0.00047 s⁻¹

B11: anti-hIL-9 antibody 6D3 (full IgG) (antibody, V domains shown)
VH: QVQVQESGPGLVKPSQTLSLTCTVSGGPITTRYYAWSWIRQPPGKGLEWMGLIDYDGSVYYSPSLKSRTSISRDTAKNQFSLQLSSVTPEDTAVYYCARVSAATLFLDYWGQGTQVTVSS
VL: LSYELTQPSALSVTLGQTAKITCQGGSLGSSYAHWYQQKPDQAPILVIYDDDSRPSGIPERFSGSSSGGTATLTISGAQAEDEGDYYCQSYDSSANFVFGGGTKLTVL
notes: also called mAb 6D3; 9MP6D3
Bioassay IC50 [pM]: inhibition of human IL-9-induced Baf3hIL9RA6 cell proliferation (human IL-9 [1]): 58.4 pM
IC50, inhibition of human IL-9-induced Baf3hIL9RA6 cell proliferation (hexosaminidase, OD405) (human IL-9 [2]): 0.115 nM
Kd (human IL-9 [3]): 0.13 nM

B12: Fab 6D3 (Fab, V domains shown)
VH: QVQVQESGPGLVKPSQTLSLTCTVSGGPITTRYYAWSWIRQPPGKGLEWMGLIDYDGSVYYSPSLKSRTSISRDTAKNQFSLQLSSVTPEDTAVYYCARVSAATLFLDYWGQGTQVTVSS
VL: LSYELTQPSALSVTLGQTAKITCQGGSLGSSYAHWYQQKPDQAPILVIYDDDSRPSGIPERFSGSSSGGTATLTISGAQAEDEGDYYCQSYDSSANFVFGGGTKLTVL
notes: it is treated as the same molecule; also called 9MP6D3
binding result (mouse IL-9 [4]): no binding

B13: Fab 6C4 (Fab, V domains shown)
VH: QVQLVESGGGLVQPGGSLRLSCAASGFTFDDYAMSWVRQAPGKGLEWVSAISWNGGSTYHAESMKGRFTISRDNAKNTLYLQMNSLKSEDTAVYYCAKNLYGSSWYEYDYWGQGTQVTVSS
VL: LSYELTQPSAVSTSLGQTARVTCQGDILESYGASWYQQKPGQAPVLVIYGDDSRPSGIPERFSGSSSGGTATLTISGAQAEDEADYYCLSADSSDYNAVFGGGTHLTVL
notes: Llama-derived Fab (VH-CH1 and VL-CL) from E. coli periplasmic extract; also called 9MP6C4
koff (human IL-9 [5]): 0.00044 s⁻¹
binding result (mouse IL-9 [4]): no binding

Other lines, results leading:

koff (human IL-9 [5]): 0.00013 s⁻¹
binding result (mouse IL-9 [4]): no binding
B5: Fab 7A4 (Fab, V domains shown)
VH: EVQLVESGPGLVKPSQTLSLTCTVSGGSITTGYYAWSWIRQPPGKGLEWMGFIARDGSTSYSPSLKSRTSISRDTSKNQFSLQLSSVTPEDTAVYYCARAGEGRSWYPGYYYGMDYWGKGTLVTVSS
VL: AQAVVTQEPSLSVSPGGTVTLTCGLSSGSVTSSNYPAWYQQTPGQAPRVLIYNTNSRHSGVPSRYSGFISGNKAALTITGAEPEDEADYYCHLHEGSTGVFGGGTHLNVL
notes: Llama-derived Fab (VH-CH1 and VL-CL) from E. coli periplasmic extract; also called 9MP7A4

Kd (mouse IL-9 [7]): 0.11 nM
koff (mouse IL-9 [7]): 0.000159 s⁻¹
kon (mouse IL-9 [7]): 1.39e+06 M⁻¹ s⁻¹
B8: anti-mIL-9 antibody 35D8 (full mIgG2a) (antibody, V domains shown)
VH: QVQLVESGPGLVQPSQTLSLTCTVSGGSITTSYYDWSWIRQPPGKGLEWMGAIAYSGNAYYSPSLKSRTSISRDTSKNQFTLQLSSVTPEDTAVYYCAREDHYSDTHGWNDYWGQGTQVTVSS
VL: SSALTQPSAVSVSLGQTARITCQGGSIGNFGATWYQQKPGQAPVLLSLGEHSRPSGIPERFSGSKSGGTATLTISGAQAEDEADYYCQSFDYIGNDHVFGGGTHLTVL
notes: the BLI values are placed here; also called mouse IL-9 mAb

binding result (human IL-9 [8]): binds
B9: Fab 8G3 (Fab, V domains shown)
VH: EVQLVESGPGLVKPSQTLSLTCTVSGDSITTSYYGWGWIRQPPGKGLEWMGVIFSDGGTTYSPSLKSRTSISRDTSKSQFSLQLSSVTPEDTAVYYCARVQYYSGSYSYPTHIYDYWSQGTQVTVSS
VL: AQAVVTQEPSLSVSPGGTVTLTCGLSSGSVTTSNYPGWFQQTPGQAPRTLIYSTSSRHSGVPSRFSGSMSGNKAALTITGAQPEDEADYYCALHMGSSTVFGGGTHLTVL
notes: Llama-derived Fab (VH-CH1 and VL-CL) from E. coli periplasmic extract; also called 9MP8G3

koff (human IL-9 [5]): 0.00067 s⁻¹
binding result (mouse IL-9 [4]): no binding
B10: Fab 8C3 (Fab, V domains shown)
VH: EVQVQESGPGLVKPSQTLSLTCTVSGGSITTSSYGWMWIRQPPGKGLEWMGVIFSDGSTAYNPSLRSRTSISRDTSKNQFSLQLSSVTPEDTAVYYCARSFVRGVVIGELDYGMDYWGKGTLVTVSS
VL: AQAVVTQEPSLSVSPGGTVTLTCGLSSGSVTTSNYPGWFQQTPGQAPRTLIYSTSSRHSGVPSRFSGSMSGNKAALTITGAQPEDEADYYCALHMGSSTVFGGGTHLTVL
notes: Llama-derived Fab (VH-CH1 and VL-CL) from E. coli periplasmic extract; also called 9MP8C3

binding result (human IL-9 [8]): binds
B14: Fab 6F2 (Fab, V domains shown)
VH: EVQLQESGPGLVKPSQTVSLTCTVSGGSITTRYYGWSWIRQPPGKGLEWMGVVYSDGSTSYSPSLESRTSISRDTSKNQFSLQLSFVTPEDTAVYYCARDRAEARLRVGPTGGNDYWGQGTQVTVSS
VL: AQAVVTQEPSLSVSPGGTVTLTCGLSSESVTSSNYPDWYQQTPGQVPRLLIYTTNSRHSGVPSRFSGSISGNKAALTITGAQPEDEADYYCGLYMGSTAVFGGGTKLTVL
notes: Llama-derived Fab (VH-CH1 and VL-CL) from E. coli periplasmic extract; also called 9MP6F2
